One experiment concerns the target T1, hCOLEC12-his (human, UniProt Q5KU26 59-742, sialylated O-glycans and N-glycans).
T1 construct: Whole entry named; also called human COLEC12-his; hCOLEC12 (SPR); not shown: his tag
The experiment is described as follows: SPR equilibrium binding analysis, hCOLEC12 immobilised.

For experiment [1], the target named is T2, human COLEC12 expressed on cells (human, UniProt Q5KU26 1-742).
T2 construct: also called hCOLEC12; C-terminal his tagged hCOLEC12
The experiment is described as follows: flow cytometry, transfected 293T cells, 2 µg/ml; 293T-Neo: 0.013. For orientation: Flow cytometry measures light scatter and fluorescence of single cells or particles in a stream.

Experiment [2] has as its target T3, mouse CD99 expressed on 293T cells (mouse, UniProt Q8VCN6 29-175, sialylated O-glycans at Thr-45 and Thr-50 (cited as relevant for PILRα recognition)).
T3 construct: whole, on cells; also called mCD99; mCD99 transfectants
T3 sequence (looked up): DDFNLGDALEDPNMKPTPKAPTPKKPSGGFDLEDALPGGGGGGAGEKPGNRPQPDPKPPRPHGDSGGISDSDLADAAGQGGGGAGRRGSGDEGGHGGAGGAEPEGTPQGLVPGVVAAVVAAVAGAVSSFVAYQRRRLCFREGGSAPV
The description is as above.

In experiment [3] the target is T4, human NPDC1 expressed on cells (human, UniProt Q9NQX5 35-325).
T4 construct: also called hNPDC1; hNPCD1
T4 sequence: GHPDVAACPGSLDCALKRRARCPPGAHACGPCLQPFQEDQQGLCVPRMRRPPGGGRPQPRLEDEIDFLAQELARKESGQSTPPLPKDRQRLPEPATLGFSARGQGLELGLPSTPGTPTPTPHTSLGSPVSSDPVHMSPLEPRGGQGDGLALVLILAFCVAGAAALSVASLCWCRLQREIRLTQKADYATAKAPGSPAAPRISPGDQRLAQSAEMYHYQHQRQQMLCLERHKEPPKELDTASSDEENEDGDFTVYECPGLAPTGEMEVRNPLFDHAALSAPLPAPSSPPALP
The description is as above.

Experiment [4] has as its target T2, human COLEC12 expressed on cells. The experiment is described as follows: flow cytometry, transfected 293T cells, 50 µg/ml; 293T-Neo: 1.5.
The target of experiment [5] is T3, mouse CD99 expressed on 293T cells. Described as above.
The target in experiment [6] is T4, human NPDC1 expressed on cells. The description is as above.
Experiment [7] shares this target. The experiment is described as follows: equilibrium competition radioligand assay: 125I-hPILRα-Fc against unlabeled hPILRα-Fc on 293T cells transiently expressing hNPDC1; average of two replicate assays.
Excerpt: Binding to mock transfectants (grey area) represents background binding. Transfected ligand expressing cells were gated and their binding to PILRα-Fc was shown. […] Binding to mock transfectants (grey area) represents background binding. PILRα positive cells were gated and ligand fusion staining was shown.
The target of experiment [8] is T5, BR3 expressed on cells (human, UniProt Q96RJ3 1-184).
T5 construct: Clone of the Origene human cDNA library
T5 sequence: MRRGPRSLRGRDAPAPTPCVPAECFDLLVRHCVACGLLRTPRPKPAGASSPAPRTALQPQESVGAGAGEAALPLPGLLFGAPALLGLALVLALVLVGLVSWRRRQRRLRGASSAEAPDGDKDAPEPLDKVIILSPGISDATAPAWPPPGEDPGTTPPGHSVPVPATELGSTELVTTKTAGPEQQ
The experiment is described as follows: flow cytometry, transfected 293T cells, 2 µg/ml.

Experiment [9] concerns the target T6, IL-2Ra expressed on cells (human, UniProt P01589 22-272).
T6 construct: Clone of the Origene human cDNA library; also called Interleukin 2 receptor alpha
T6 sequence: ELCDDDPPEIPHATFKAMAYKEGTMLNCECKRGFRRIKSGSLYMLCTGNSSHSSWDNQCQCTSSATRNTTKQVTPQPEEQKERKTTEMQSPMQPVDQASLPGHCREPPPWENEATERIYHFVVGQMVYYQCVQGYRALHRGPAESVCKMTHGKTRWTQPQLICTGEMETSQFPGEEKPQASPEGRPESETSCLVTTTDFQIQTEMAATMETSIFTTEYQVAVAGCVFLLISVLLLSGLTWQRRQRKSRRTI
The experiment is described as follows: flow cytometry, transfected 293T cells, 2 µg/ml.

The target of experiment [10] is T7, PSS8 expressed on cells (human, UniProt Q16651 30-343).
T7 construct: Clone of the Origene human cDNA library; also called Protease serine 8; prostasin
The experiment is described as follows: flow cytometry, transfected 293T cells, 2 µg/ml.

Experiment [11] addresses T5, BR3 expressed on cells. The experiment is described as follows: flow cytometry, transfected 293T cells, 50 µg/ml.
The target in experiment [12] is T6, IL-2Ra expressed on cells. The experiment is described as follows: flow cytometry, transfected 293T cells, 50 µg/ml.
Experiment [13] deals with T7, PSS8 expressed on cells. The experiment is described as follows: flow cytometry, transfected 293T cells, 50 µg/ml.
Experiment [14] has as its target T8, MAG expressed on cells (human, UniProt P20916 20-626).
T8 construct: Clone of the Origene human cDNA library; also called Myelin associated glycoprotein; SIGLEC4A
T8 sequence: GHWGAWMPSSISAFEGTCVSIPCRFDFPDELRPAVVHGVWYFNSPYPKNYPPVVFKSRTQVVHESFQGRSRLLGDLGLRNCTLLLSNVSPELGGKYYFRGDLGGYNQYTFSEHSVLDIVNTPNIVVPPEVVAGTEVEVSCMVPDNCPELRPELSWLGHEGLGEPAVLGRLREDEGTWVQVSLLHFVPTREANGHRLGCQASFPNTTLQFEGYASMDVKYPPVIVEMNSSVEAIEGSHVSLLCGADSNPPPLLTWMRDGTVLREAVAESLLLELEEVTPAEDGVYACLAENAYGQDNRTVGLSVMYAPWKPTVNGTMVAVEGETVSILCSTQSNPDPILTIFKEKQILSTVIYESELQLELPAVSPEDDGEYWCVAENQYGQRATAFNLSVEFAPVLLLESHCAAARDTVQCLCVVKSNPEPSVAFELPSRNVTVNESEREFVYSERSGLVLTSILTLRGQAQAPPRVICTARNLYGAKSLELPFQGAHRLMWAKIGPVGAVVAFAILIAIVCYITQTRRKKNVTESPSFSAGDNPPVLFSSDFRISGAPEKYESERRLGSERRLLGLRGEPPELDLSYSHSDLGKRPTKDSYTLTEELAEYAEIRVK
The experiment is described as follows: flow cytometry, transfected 293T cells, 50 µg/ml.

In experiment [15] the target is T9, LRRTM4 expressed on cells (human, UniProt Q86VH4 31-590).
T9 construct: Clone of the Origene human cDNA library; also called Leucine rich repeat transmembrane neuronal 4
The experiment is described as follows: flow cytometry, transfected 293T cells, 50 µg/ml.

The target in experiment [16] is T8, MAG expressed on cells. The experiment is described as follows: flow cytometry, transfected 293T cells, 2 µg/ml.
In experiment [17] the target is T9, LRRTM4 expressed on cells. The experiment is described as follows: flow cytometry, transfected 293T cells, 2 µg/ml.

T9 sequence (Q86VH4 31-590 limits assumed): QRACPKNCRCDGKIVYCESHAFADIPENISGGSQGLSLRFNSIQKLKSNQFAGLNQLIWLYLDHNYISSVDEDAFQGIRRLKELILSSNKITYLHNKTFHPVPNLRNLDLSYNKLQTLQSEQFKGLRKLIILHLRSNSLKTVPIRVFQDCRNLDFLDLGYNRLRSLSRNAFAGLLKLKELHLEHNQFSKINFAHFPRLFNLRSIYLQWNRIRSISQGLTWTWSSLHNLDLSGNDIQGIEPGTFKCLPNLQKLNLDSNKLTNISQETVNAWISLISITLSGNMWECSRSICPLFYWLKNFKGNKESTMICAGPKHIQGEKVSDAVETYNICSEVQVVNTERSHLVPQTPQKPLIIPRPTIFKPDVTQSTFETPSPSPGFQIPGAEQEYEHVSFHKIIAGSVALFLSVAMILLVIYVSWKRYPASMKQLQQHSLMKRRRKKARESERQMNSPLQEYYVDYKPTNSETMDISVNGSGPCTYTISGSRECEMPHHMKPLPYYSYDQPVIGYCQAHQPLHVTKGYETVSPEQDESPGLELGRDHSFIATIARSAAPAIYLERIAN
T7 sequence (Q16651 30-343 limits assumed): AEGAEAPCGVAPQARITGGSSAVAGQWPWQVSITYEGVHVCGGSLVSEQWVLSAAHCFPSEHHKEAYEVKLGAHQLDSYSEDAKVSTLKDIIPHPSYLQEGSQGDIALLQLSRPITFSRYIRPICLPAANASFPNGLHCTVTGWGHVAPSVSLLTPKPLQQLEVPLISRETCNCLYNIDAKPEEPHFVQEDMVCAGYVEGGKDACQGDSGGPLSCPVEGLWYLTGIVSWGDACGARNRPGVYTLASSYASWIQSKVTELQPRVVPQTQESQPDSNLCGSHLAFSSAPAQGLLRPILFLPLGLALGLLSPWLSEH
T2 sequence (Q5KU26 whole entry S522P/G606S): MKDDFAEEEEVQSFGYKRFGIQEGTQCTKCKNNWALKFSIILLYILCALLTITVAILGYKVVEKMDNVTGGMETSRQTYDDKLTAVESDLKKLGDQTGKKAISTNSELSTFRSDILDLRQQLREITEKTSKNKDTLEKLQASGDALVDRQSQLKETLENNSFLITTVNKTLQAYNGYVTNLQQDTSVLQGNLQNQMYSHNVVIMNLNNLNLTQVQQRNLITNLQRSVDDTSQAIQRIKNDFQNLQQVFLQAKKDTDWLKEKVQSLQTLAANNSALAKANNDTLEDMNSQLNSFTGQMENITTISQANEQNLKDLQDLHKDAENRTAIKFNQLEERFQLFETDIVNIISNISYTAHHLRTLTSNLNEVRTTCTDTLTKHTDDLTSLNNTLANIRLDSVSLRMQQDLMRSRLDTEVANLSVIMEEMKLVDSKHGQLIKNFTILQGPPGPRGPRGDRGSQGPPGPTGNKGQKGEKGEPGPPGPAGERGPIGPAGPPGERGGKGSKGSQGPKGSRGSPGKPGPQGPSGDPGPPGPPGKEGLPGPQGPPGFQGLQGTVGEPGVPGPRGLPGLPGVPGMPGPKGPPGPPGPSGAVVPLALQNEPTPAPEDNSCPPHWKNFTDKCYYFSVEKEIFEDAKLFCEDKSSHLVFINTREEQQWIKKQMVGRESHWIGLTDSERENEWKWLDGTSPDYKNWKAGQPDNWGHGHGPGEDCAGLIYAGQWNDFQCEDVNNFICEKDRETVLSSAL
T1 sequence (Q5KU26 59-742 S522P/G606S limits assumed): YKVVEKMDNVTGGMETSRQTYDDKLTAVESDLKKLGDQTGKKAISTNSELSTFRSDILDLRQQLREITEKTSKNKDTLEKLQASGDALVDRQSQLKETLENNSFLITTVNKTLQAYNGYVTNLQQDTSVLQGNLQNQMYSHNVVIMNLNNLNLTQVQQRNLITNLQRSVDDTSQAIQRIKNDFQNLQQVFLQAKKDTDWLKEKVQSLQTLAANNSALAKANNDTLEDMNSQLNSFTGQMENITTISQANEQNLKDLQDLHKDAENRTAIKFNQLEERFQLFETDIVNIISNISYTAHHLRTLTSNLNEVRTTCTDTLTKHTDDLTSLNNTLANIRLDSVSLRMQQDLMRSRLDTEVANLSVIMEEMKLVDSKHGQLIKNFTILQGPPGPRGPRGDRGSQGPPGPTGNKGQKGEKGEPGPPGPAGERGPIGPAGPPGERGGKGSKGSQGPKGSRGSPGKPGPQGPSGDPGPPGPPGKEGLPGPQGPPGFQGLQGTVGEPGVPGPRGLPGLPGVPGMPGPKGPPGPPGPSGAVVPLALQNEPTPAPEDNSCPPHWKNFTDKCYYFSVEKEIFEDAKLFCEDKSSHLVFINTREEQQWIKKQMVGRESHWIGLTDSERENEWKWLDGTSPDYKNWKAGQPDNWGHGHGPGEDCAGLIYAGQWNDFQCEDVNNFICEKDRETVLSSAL

B1: hPILRα-Fc (Fc fusion)
chain: QPSGSTGSGPSYLYGVTQPKHLSASMGGSVEIPFSFYYPWELATAPDVRISWRRGHFHRQSFYSTRPPSIHKDYVNRLFLNWTEGQKSGFLRISNLQKQDQSVYFCRVELDTRSSGRQQWQSIEGTKLSITQAVTTTTQRPSSMTTTWRLSSTTTTTGLRVTQGKRRSDSWHISLETA
notes: also called human PILRα-Fc; WT hPILRα-Fc; not shown: Fc of mouse IgG2a (PILRα-mIgG2a, called PILRα-Fc)
For B1, the figures for the Kd (with hCOLEC12-his; in [7]) were 1100 nM and 49 nM, respectively. The “% cells in lower right quadrant” value was 0.014% in experiment [1]; 23.4% in [2]; 27.8% in [3]; 42% in experiment [4]; 70.8% in experiment [5]; 68.8% in experiment [6]. In addition, the “% cells in lower right quadrant” value stood at 31.5% with BR3 expressed on cells [8]; 6.39% in experiment [9]; 18.7% with PSS8 expressed on cells [10]; 67.3% with BR3 expressed on cells [11]; 64.4% in [12]; 81% with PSS8 expressed on cells [13]. Moreover, the “% cells in lower right quadrant” value with MAG expressed on cells [14] is 36.8%; in experiment [15], 46%; in the experiment with MAG expressed on cells [16] it was 2.31%; in [17], 11.7%.

(Values after patent US20150203575A1 (Genentech, published 2015).)
